Measured values taken from paper PMC6321783 (Cellular signalling, 2018).

Target: T1, HA-ASK1 (Apoptosis Signal-regulating Kinase 1) (UniProt Q99683 1-1374)
T1 sequence (looked up): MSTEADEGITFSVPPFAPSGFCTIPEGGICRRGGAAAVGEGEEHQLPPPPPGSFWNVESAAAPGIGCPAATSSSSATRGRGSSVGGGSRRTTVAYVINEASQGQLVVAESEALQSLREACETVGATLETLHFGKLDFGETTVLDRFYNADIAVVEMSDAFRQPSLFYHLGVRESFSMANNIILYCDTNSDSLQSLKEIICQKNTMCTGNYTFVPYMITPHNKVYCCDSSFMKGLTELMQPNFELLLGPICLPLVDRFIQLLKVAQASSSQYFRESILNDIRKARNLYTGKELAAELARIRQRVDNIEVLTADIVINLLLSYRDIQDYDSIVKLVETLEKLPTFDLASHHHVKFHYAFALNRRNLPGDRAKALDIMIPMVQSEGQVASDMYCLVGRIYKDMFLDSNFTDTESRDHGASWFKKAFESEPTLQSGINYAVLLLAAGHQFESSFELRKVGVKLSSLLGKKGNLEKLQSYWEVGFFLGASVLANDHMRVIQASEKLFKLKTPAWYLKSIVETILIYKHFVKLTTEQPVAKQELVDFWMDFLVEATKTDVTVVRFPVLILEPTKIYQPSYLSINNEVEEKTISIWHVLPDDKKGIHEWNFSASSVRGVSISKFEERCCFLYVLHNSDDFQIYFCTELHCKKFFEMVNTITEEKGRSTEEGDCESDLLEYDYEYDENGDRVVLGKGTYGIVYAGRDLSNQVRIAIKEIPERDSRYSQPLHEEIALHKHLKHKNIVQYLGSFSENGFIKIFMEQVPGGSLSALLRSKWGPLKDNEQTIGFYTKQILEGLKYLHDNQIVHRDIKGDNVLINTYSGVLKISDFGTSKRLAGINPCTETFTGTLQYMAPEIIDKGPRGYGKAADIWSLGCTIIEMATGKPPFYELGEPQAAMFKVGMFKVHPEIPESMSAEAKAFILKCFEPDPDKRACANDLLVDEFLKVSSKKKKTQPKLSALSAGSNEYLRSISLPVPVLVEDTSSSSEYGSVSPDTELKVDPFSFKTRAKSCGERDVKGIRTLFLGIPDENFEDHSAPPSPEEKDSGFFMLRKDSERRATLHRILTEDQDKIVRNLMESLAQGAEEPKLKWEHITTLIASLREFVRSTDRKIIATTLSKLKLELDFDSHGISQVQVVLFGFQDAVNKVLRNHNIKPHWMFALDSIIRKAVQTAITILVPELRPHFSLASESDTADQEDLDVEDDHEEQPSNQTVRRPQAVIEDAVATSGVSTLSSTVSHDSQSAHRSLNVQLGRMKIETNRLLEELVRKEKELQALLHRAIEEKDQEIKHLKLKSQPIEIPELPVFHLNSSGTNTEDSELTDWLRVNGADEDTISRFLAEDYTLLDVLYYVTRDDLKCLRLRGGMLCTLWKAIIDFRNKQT
Assay: co-IP

binding relative to WT arrestin-3: ~0.33 of WT
B1: arrestin-3-(1–366) fragment (expressed in COS7 cells) (domain or fragment, bovine, UniProt P32120-2 1-366, looked up)
chain: MGEKPGTRVFKKSSPNCKLTVYLGKRDFVDHLDKVDPVDGVVLVDPDYLKDRKVFVTLTCAFRYGREDLDVLGLSFRKDLFIANYQAFPPTPNPPRPPTRLQERLLRKLGQHAHPFFFTIPQNLPCSVTLQPGPEDTGKACGVDFEIRAFCAKSLEEKSHKRNSVRLVIRKVQFAPEKPGPQPSAETTRHFLMSDRSLHLEASLDKELYYHGEPLNVNVHVTNNSTKTVKKIKVSVRQYADICLFSTAQYKCPVAQVEQDDQVSPSSTFCKVYTITPLLSNNREKRGLALDGKLKHEDTNLASSTIVKEGANKEVLGILVSYRVKVKLVVSRGGDVSVELPFVLMHPKPHDHIALPRPQSAAPETD
